The values below are quoted from earlier work in PMC3320014.

In this data set the target is Protein Z-dependent protease inhibitor (Homo sapiens) (UniProt Q9UK55).
Chain of UniProt Q9UK55 (Q9UK55 22-444): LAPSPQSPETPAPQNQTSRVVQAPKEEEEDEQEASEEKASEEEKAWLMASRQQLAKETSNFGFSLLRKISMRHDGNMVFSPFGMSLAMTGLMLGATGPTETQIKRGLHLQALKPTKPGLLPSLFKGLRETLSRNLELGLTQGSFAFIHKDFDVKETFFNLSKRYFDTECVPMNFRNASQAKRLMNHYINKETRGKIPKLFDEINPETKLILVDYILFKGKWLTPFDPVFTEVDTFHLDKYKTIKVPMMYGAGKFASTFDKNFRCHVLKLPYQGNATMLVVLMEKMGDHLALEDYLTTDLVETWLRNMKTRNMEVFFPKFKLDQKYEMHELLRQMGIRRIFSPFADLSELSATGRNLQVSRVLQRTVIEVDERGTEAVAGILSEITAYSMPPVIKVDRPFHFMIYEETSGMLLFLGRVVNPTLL

Take Protein Z (from UniProt P22891): the Kd is 7 nM.
